Like-named read-outs stand apart in the source and are kept apart here.
Assays:
[1] = molecular target: T1, human CD123 (IL-3Rα, interleukin-3 receptor alpha chain) (human, UniProt P26951 19-378); assay: flow cytometry on TF-1 cells; EC50 of the binding curve taken as apparent Kd; TF-1 cells
T1 construct: CD123 on human cell lines (TF-1, HNT-34, MOLM-13 and other AML, B-ALL, CML and NHL lines) or on 300-19 cells stably expressing human CD123; also called CD123 antigen; human CD123 antigen
Protocol: Binding affinity was tested by flow cytometry using purified antibodies. […] TF-1 cells (5×10⁴ cells per sample) were incubated with varying concentrations of murine antibodies in 200 μL FACS buffer (DMEM medium supplemented with 2% normal goat serum). The cells were then pelleted, washed twice, and incubated for 1 hr with 100 μL of phycoerythrin (PE)-conjugated goat anti-mouse IgG-antibody (Jackson Laboratory). The cells were pelleted again, washed with FACS buffer and resuspended in 200 μL of PBS containing 1% formaldehyde. Samples were acquired using a FACSCalibur flow cytometer with the HTS multiwell sampler, or a FACS array flow cytometer, and analyzed using CellQuest Pro (all from BD Biosciences, San Diego, US). For each sample the geomean fluorescence intensity for FL2 was calculated and plotted against the antibody concentration in a semi-log plot. A dose-response curve was generated by non-linear regression and the EC₅₀ value of each curve, which corresponds to the apparent dissociation constant (Kd) of each antibody, was calculated using GraphPad Prism v4 (GraphPad software, San Diego, Calif.).

[2] = molecular target: T1, human CD123 (IL-3Rα, interleukin-3 …); assay: cell-based or functional assay
[3] = molecular target: T1, human CD123 (IL-3Rα, interleukin-3 …); assay: flow cytometry on HNT-34 cells; EC50 of the binding curve taken as apparent Kd
[4] = molecular target: T1, human CD123 (IL-3Rα, interleukin-3 …); assay: flow cytometry on HNT-34 cells, PE-conjugated goat anti-human secondary
[5] = molecular target: T1, human CD123 (IL-3Rα, interleukin-3 …); assay: as above; remark: listed apart in the source
[6] = molecular target: T1, human CD123 (IL-3Rα, interleukin-3 …); assay: cell-based or functional assay; remark: listed apart in the source
[7] = molecular target: T1, human CD123 (IL-3Rα, interleukin-3 …); assay: cell-based or functional assay; remark: listed apart in the source
[8] = molecular target: T1, human CD123 (IL-3Rα, interleukin-3 …); assay: flow cytometry on HNT-34 cells; apparent Kd

B1: muCD123-3 (antibody, mouse IgG1, kappa, V domains shown)
VH: EFQLQQSGPEVVKPGASVKMSCKASGYTFTSYVMHWMKQKPGQGLEWIGYIKPYKDGTKYNEKFKGKATLISDKPSSTAYMELSSLTSEDSAVYYCAREGENGYYDAMDYWGQGTSVTVSS
VL: DIQMTQSPSSLSASLGGKVTITCKASQDINKYIAWYQHKPGKGPRLLIHYTSTLQPGIPSRFSGSGSGRDYSFSISNLEPEDIATYYCLQYDNLLYTFGGGTKLELKR
notes: Murine monoclonal antibody purified from hybridoma supernatant; also called CD123Mu-3; CD123 Mu-3
Kd [1]: 0.3 nM | IC50, inhibition of IL-3 dependent proliferation of TF-1 cells [2]: 0.26 nM | Kd [3]: 0.2 nM

B2: huCD123-6Gv4.7-CysMab-D4 (antibody)
heavy: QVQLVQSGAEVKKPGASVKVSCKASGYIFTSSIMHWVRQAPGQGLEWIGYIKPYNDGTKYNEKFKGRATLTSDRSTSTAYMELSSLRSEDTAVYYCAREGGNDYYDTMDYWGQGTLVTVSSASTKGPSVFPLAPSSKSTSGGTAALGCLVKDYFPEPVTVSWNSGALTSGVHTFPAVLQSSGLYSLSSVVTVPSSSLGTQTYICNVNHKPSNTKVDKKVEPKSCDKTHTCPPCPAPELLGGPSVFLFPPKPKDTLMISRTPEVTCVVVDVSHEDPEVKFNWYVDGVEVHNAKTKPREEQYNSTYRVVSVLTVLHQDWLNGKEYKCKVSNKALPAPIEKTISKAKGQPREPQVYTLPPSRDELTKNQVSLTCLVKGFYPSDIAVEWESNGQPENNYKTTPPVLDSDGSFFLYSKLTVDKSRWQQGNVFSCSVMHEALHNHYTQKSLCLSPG
light: DIQMTQSPSSLSASVGDRVTITCRASQDINSYLSWFQQKPGKAPKTLIYRVNRLVDGVPSRFSGSGSGNDYTLTISSLQPEDFATYYCLQYDAFPYTFGQGTKVEIKRTVAAPSVFIFPPSDEQLKSGTASVVCLLNNFYPREAKVQWKVDNALQSGNSQESVTEQDSKDSTYSLSSTLTLSKADYEKHKVYACEVTHQGLSSPVTKSFNRGEC
modifications: D4 linked through the engineered Cys in the heavy chain CH3 domain (5th to the last residue of SEQ ID NO: 54; EU/OU position 442); 1.8 mol D4/mol antibody
EC50 (read off the curve) [4]: ~0.06 nM

B3: huCD123-6Gv4.7S3-SeriMab-D8 (antibody, human IgG1, kappa)
heavy: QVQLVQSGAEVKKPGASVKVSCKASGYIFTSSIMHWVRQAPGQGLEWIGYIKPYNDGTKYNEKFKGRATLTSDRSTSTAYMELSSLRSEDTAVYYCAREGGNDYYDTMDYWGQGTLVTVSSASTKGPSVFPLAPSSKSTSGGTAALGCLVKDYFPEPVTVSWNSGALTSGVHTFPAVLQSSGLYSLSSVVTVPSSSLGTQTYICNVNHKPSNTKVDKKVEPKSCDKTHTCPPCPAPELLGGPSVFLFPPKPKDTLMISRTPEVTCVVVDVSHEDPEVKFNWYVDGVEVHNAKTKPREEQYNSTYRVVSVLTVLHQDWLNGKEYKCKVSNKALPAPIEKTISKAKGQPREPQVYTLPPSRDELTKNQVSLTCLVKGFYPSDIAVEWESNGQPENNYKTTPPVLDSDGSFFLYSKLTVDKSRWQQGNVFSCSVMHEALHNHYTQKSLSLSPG
light: SIQMTQSPSSLSASVGDRVTITCRASQDINSYLSWFQQKPGKAPKTLIYRVNRLVDGVPSRFSGSGSGNDYTLTISSLQPEDFATYYCLQYDAFPYTFGQGTKVEIKRTVAAPSVFIFPPSDEQLKSGTASVVCLLNNFYPREAKVQWKVDNALQSGNSQESVTEQDSKDSTYSLSSTLTLSKADYEKHKVYACEVTHQGLSSPVTKSFNRGEC
modifications: D8 linked through the oxidized N-terminal Ser on the light chain
EC50 (read off the curve) [5]: ~0.2 nM

B4: huCD123-6Gv4.7S3-sSPDB-D1 (antibody, human IgG1, kappa)
heavy: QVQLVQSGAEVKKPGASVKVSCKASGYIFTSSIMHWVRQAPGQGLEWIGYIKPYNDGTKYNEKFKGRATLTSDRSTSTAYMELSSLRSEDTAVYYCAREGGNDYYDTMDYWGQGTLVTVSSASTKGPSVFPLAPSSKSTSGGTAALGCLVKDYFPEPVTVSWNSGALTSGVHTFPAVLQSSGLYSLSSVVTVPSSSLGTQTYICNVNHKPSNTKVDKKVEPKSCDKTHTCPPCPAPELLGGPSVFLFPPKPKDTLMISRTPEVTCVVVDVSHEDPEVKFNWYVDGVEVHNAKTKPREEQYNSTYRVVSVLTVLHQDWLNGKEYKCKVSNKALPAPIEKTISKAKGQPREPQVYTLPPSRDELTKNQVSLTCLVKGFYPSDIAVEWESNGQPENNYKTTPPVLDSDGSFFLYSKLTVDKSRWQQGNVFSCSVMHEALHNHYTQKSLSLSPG
light: SIQMTQSPSSLSASVGDRVTITCRASQDINSYLSWFQQKPGKAPKTLIYRVNRLVDGVPSRFSGSGSGNDYTLTISSLQPEDFATYYCLQYDAFPYTFGQGTKVEIKRTVAAPSVFIFPPSDEQLKSGTASVVCLLNNFYPREAKVQWKVDNALQSGNSQESVTEQDSKDSTYSLSSTLTLSKADYEKHKVYACEVTHQGLSSPVTKSFNRGEC
modifications: D1 linked at Lys residues via a sulfonated SPDB linker; sites not stated; D1 linked at Lys residues via a sulfonated SPDB linker; average of 2.9 D1 per antibody, sites not stated
notes: also called huCD123Gv4.7S3-sulfo-SPDB-D1
EC50 (read off the curve) [5]: ~0.1 nM

B5: huCD123-6Rv1.1-D2 (antibody, human IgG1, kappa)
heavy: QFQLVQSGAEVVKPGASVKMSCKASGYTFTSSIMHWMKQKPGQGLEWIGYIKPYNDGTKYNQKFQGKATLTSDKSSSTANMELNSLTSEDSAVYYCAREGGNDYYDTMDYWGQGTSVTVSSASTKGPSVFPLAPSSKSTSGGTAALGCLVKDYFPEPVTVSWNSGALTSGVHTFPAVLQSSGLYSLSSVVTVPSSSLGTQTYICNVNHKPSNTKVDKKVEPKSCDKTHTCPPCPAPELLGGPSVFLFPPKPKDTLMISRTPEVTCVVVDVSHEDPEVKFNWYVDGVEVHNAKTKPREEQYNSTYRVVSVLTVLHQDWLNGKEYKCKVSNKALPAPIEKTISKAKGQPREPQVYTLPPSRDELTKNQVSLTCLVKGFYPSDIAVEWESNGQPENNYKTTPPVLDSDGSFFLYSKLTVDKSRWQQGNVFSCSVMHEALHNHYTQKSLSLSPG
light: DIQMTQSPSSMSASVGERVTITCRASQDINSYLSWFQQKPGKSPKTLIYRVNRLVDGVPSRFSGSGSGQDYSLTISSLEPEDMGIYYCLQYDAFPYTFGQGTKLEIKRTVAAPSVFIFPPSDEQLKSGTASVVCLLNNFYPREAKVQWKVDNALQSGNSQESVTEQDSKDSTYSLSSTLTLSKADYEKHKVYACEVTHQGLSSPVTKSFNRGEC
modifications: D2 linked at Lys residues; sites not stated; D2 linked at Lys residues; sites and drug load not stated
IC50, in vitro cytotoxicity on HNT-34 cells [2]: ~0.002 nM | IC50, in vitro cytotoxicity on MOLM-1 cells [2]: ~0.03 nM | IC50, in vitro cytotoxicity on SHI-1 cells [2]: ~0.01 nM | fold loss of cytotoxicity when CD123 is blocked by the unconjugated huCD123-6 antibody [2]: ≥ 100 fold | IC50, in vitro cytotoxicity on EOL-1 cells (AML) [6]: 0.0025 nM | IC50, in vitro cytotoxicity on Granta519 cells (NHL) [6]: 0.0012 nM | IC50, in vitro cytotoxicity on HNT-34 cells (AML) [6]: 0.002 nM | IC50, in vitro cytotoxicity on JM-1 cells (B-ALL) [6]: 0.024 nM | IC50, in vitro cytotoxicity on KASUMI-3 cells (AML) [6]: 0.0098 nM | IC50, in vitro cytotoxicity on KCL-22 cells (CML) [6]: 0.03 nM | IC50, in vitro cytotoxicity on KG-1 cells (AML) [6]: 0.22 nM | IC50, in vitro cytotoxicity on KO52 cells (AML) [6]: 0.014 nM | IC50, in vitro cytotoxicity on KOPN8 cells (B-ALL) [6]: 0.011 nM | IC50, in vitro cytotoxicity on MOLM-1 cells (CML) [6]: 0.029 nM | IC50, in vitro cytotoxicity on MOLM-13 cells (AML) [6]: 0.00049 nM | IC50, in vitro cytotoxicity on MV4-11 cells (AML) [6]: 0.00056 nM | IC50, in vitro cytotoxicity on OCI-AML2 cells (AML) [6]: 0.088 nM | IC50, in vitro cytotoxicity on SHI-1 cells (AML) [6]: 0.013 nM | IC50, in vitro cytotoxicity on THP1 cells (AML) [6]: 0.0067 nM

B6: huCD123-6Gv4.7S3-SeriMab-sD1 (antibody, human IgG1, kappa)
heavy: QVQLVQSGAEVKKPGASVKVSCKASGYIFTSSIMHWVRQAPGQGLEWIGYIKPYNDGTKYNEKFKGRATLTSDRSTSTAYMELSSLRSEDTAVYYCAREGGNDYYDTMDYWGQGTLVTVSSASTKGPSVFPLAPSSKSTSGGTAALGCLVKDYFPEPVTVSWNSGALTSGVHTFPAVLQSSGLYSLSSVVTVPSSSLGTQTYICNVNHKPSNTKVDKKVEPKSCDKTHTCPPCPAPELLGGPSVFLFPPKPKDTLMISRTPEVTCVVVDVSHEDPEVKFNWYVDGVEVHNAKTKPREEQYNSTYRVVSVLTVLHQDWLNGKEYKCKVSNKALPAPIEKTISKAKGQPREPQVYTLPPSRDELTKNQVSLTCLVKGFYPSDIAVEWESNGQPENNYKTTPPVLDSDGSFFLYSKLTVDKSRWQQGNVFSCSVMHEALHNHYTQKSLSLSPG
light: SIQMTQSPSSLSASVGDRVTITCRASQDINSYLSWFQQKPGKAPKTLIYRVNRLVDGVPSRFSGSGSGNDYTLTISSLQPEDFATYYCLQYDAFPYTFGQGTKVEIKRTVAAPSVFIFPPSDEQLKSGTASVVCLLNNFYPREAKVQWKVDNALQSGNSQESVTEQDSKDSTYSLSSTLTLSKADYEKHKVYACEVTHQGLSSPVTKSFNRGEC
modifications: sulfonated D1 (sD1) linked through the oxidized N-terminal Ser on the light chain; average of 2.0 D1 per antibody
notes: also called huCD123-6-SeriMab-sD1
EC50 (read off the curve) [5]: ~0.2 nM

B7: huCD123-6Gv4.7S3-D2 (antibody, human IgG1, kappa)
heavy: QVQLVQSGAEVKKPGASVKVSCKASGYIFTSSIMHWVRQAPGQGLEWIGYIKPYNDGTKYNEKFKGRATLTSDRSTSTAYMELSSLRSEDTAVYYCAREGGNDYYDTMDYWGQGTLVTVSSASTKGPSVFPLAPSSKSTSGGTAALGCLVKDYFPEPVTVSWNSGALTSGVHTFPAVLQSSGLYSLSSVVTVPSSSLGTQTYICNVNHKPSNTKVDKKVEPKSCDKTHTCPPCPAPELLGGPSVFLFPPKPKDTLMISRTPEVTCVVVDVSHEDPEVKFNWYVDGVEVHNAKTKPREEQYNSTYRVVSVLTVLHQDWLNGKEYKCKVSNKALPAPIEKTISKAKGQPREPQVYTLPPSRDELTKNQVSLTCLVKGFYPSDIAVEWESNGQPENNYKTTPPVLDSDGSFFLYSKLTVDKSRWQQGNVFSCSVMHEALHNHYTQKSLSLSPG
light: SIQMTQSPSSLSASVGDRVTITCRASQDINSYLSWFQQKPGKAPKTLIYRVNRLVDGVPSRFSGSGSGNDYTLTISSLQPEDFATYYCLQYDAFPYTFGQGTKVEIKRTVAAPSVFIFPPSDEQLKSGTASVVCLLNNFYPREAKVQWKVDNALQSGNSQESVTEQDSKDSTYSLSSTLTLSKADYEKHKVYACEVTHQGLSSPVTKSFNRGEC
modifications: D2 linked at Lys residues; sites not stated; D2 linked at Lys residues; average of 2.9 D2 per antibody, sites not stated
EC50 (read off the curve) [5]: ~0.1 nM

B8: huCD123-6Gv4.7-CysMab-D5 (antibody)
heavy: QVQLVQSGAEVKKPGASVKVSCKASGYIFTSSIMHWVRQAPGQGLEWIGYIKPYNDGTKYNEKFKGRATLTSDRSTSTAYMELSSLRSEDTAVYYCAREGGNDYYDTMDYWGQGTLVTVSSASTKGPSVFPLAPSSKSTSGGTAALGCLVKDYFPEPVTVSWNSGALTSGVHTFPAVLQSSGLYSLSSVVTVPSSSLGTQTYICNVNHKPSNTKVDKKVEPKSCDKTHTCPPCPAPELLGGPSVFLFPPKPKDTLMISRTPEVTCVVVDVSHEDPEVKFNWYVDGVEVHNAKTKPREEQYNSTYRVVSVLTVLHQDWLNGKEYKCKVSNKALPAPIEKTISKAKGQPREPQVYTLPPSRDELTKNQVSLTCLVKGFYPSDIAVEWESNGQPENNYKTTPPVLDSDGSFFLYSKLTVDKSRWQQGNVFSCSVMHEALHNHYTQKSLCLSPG
light: DIQMTQSPSSLSASVGDRVTITCRASQDINSYLSWFQQKPGKAPKTLIYRVNRLVDGVPSRFSGSGSGNDYTLTISSLQPEDFATYYCLQYDAFPYTFGQGTKVEIKRTVAAPSVFIFPPSDEQLKSGTASVVCLLNNFYPREAKVQWKVDNALQSGNSQESVTEQDSKDSTYSLSSTLTLSKADYEKHKVYACEVTHQGLSSPVTKSFNRGEC
modifications: D5 linked through the engineered Cys in the heavy chain CH3 domain (5th to the last residue of SEQ ID NO: 54; EU/OU position 442); 2 mol D5/mol antibody
notes: also called huCD123-CysMab-D5; Cys-linked D5 conjugate
Fold-specificity IC50 control ADC/IC50 huCD123-CysMab-D5, EOL-1 cells [7]: 1000 fold | Fold-specificity IC50 control ADC/IC50 huCD123-CysMab-D5, HNT-34 cells [7]: 1100 fold | Fold-specificity IC50 control ADC/IC50 huCD123-CysMab-D5, KASUMI-3 cells [7]: 100 fold | Fold-specificity IC50 control ADC/IC50 huCD123-CysMab-D5, KG-1 cells [7]: 95 fold | Fold-specificity IC50 control ADC/IC50 huCD123-CysMab-D5, KO52 cells [7]: 100 fold | Fold-specificity IC50 control ADC/IC50 huCD123-CysMab-D5, MOLM-1 cells [7]: > 167 fold | Fold-specificity IC50 control ADC/IC50 huCD123-CysMab-D5, MV4-11 cells [7]: 2000 fold | Fold-specificity IC50 control ADC/IC50 huCD123-CysMab-D5, Molm-13 cells [7]: 2000 fold | Fold-specificity IC50 control ADC/IC50 huCD123-CysMab-D5, SHI-1 cells [7]: > 3.33 fold | Fold-specificity IC50 control ADC/IC50 huCD123-CysMab-D5, SKM-1 cells [7]: 57 fold | Fold-specificity IC50 control ADC/IC50 huCD123-CysMab-D5, THP-1 cells [7]: 167 fold | Fold-specificity IC50 control ADC/IC50 huCD123-CysMab-D5, UCSD-AML1 cells [7]: 400 fold | IC50, in vitro cytotoxicity on EOL-1 cells [7]: 2 pmol | IC50, in vitro cytotoxicity on HNT-34 cells [7]: 1 pmol | IC50, in vitro cytotoxicity on KASUMI-3 cells [7]: 3 pmol | IC50, in vitro cytotoxicity on KG-1 cells [7]: 60 pmol | IC50, in vitro cytotoxicity on KO52 cells [7]: 20 pmol | IC50, in vitro cytotoxicity on MOLM-1 cells [7]: 120 pmol | IC50, in vitro cytotoxicity on MV4-11 cells [7]: 1 pmol | IC50, in vitro cytotoxicity on Molm-13 cells [7]: 0.5 pmol | IC50, in vitro cytotoxicity on SHI-1 cells [7]: 6 pmol | IC50, in vitro cytotoxicity on SKM-1 cells [7]: 7 pmol | IC50, in vitro cytotoxicity on THP-1 cells [7]: 30 pmol | IC50, in vitro cytotoxicity on UCSD-AML1 cells [7]: 1 pmol | EC50 (read off the curve) [4]: ~0.08 nM

B9: huCD123-6Gv4.7-CysMab (antibody)
heavy chain: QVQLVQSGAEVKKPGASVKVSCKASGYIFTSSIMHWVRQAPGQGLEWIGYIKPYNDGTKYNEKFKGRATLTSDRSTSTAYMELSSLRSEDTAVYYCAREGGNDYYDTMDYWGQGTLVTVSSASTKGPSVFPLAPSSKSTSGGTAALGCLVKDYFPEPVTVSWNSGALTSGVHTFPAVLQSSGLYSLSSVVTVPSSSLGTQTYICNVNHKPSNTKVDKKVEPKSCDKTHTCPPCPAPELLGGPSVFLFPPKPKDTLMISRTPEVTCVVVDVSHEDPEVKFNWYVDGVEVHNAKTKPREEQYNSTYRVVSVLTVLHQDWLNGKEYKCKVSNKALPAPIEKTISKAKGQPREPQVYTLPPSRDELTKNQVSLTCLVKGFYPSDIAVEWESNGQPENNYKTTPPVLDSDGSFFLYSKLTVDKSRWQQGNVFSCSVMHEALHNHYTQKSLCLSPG
light chain: DIQMTQSPSSLSASVGDRVTITCRASQDINSYLSWFQQKPGKAPKTLIYRVNRLVDGVPSRFSGSGSGNDYTLTISSLQPEDFATYYCLQYDAFPYTFGQGTKVEIKR
notes: Differs from m21 (huCD123-6Gv4.7) by the engineered Cys in the heavy chain CH3 domain; it is the antibody part of m29 and m30
EC50 (read off the curve) [4]: ~0.04 nM

B10: muCD123-14 (antibody, mouse IgG1, kappa, V domains shown)
VH: EVKLVESGGDLVKPGGSLKLSCAASGFTFSNYAMSWVRQNSEKRLEWVATINSGGSFTYYPDSVKGRFTISRDNAKDSLYLQMSSLNSEDTAMYYCARQSEAYYGYDKRTWFAYWGQGTLVTVSS
VL: DILLTQSPAILSVSPGTRVSFSCRASQSVGTSIHWYQQRPNGFPRLLIKYASESISGIPSRFSGSGSGTDFTLNINSVESEDIADYYCQQSKSWPLTFGAGTKLELKR
notes: Murine monoclonal antibody purified from hybridoma supernatant; also called CD123Mu-14; CD123 Mu-14
Kd [1]: 0.3 nM | IC50, inhibition of IL-3 dependent proliferation of TF-1 cells [2]: 0.08 nM | Kd [3]: 0.5 nM

B11: muCD123-6 (antibody, mouse IgG1, kappa, V domains shown)
VH: EFQLQQSGPELVKPGASVKMSCKASGYIFTSSIMHWMKQKPGQGLEWIGYIKPYNDGTKYNEKFKGKATLTSDKSSSTANMELNSLTSEDSAVYYCAREGGNDYYDTMDYWGQGTSVTVSS
VL: DIKMTQSPSSMYASLGERVTITCKASQDINSYLSWFQQKPGKSPKTLIYRVNRLVDGVPSRFSGSGSGQDYSLTISSLEYEDMGIYYCLQYDAFPYTFGGGTKLEIKR
notes: Murine monoclonal antibody purified from hybridoma supernatant; also called CD123Mu-6; CD123 Mu-6
Kd [1]: 0.1 nM | Kd [8]: ~0.06 nM | IC50, inhibition of IL-3 dependent proliferation of TF-1 cells [2]: 0.05 nM | Kd [3]: 0.07 nM
